This note sets out measurements from PMC12168268, “Targeted inhibition of Ninjurin2 promotes chemosensitivity in chemoresistant gastric cancer by suppressing cancer-initiating cells” (Biomarker Research, 2025).

The target in the test is T1, recombinant human Periostin (human, UniProt Q15063 22-836).
T1 construct: Periostin, human, recombinant; source: bought: Sino Biological
T1 sequence (looked up): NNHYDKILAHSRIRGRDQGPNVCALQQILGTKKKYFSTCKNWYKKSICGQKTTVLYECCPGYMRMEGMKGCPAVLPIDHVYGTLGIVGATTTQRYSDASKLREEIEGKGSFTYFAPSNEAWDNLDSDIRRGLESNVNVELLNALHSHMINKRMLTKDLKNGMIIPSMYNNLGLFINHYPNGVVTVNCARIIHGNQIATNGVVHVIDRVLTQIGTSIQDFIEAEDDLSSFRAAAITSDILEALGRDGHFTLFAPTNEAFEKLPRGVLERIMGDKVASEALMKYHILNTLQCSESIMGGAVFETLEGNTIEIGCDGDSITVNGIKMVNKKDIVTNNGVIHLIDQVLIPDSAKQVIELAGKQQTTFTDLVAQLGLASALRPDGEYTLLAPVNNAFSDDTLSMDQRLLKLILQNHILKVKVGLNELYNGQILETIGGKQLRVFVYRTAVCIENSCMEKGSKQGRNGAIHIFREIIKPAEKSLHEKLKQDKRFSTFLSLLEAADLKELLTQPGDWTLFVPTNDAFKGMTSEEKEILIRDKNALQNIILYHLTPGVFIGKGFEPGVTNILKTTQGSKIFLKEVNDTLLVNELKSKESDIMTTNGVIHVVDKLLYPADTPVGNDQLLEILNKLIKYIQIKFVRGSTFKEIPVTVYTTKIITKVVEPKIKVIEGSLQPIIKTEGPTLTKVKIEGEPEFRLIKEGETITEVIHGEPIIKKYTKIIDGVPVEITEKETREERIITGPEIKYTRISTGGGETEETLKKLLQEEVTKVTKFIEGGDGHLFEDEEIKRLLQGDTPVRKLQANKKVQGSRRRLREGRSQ
Description: SPR; Biacore 3000; NINJ2 extracellular domain immobilised by amine coupling on a carboxymethyldextran chip (CMD200M); periostin injected at 231, 116, 58, 29 and 14 nM, 30 µL/min, 2 min association, 5 min dissociation; HBS-T (10 mM HEPES, 150 mM NaCl, 0.005% Tween20) pH 7.4. The following applies: both partners purified.

B1: extracellular domain (Met1-Thr65) of recombinant human NINJ2 (domain or fragment, UniProt Q9NZG7 1-65, looked up)
chain: MESARENIDLQPGSSDPRSQPINLNHYATKKSVAESMLDVALFMSNAMRLKAVLEQGPSSHYYTT
notes: Ninjurin-2 (NINJ2), human, extracellular domain, residues Met1-Thr65; also called NINJ2 extracellular domain; source: bought: R&D Systems
As usually defined, the Kd is the constant that tells how readily two partners part at equilibrium. In the case of B1, the dissociation constant Kd was determined as 16.9 nM.
